Results taken from CN113956355A.

Assays:
人脑利钠肽(BNP) (human) [1] = target: 人脑利钠肽(BNP) (human) (UniProt P16860); experiment: sandwich ELISA, 5G8 coated, HRP-5D11 detection; plasma sample with BNP 425.6 pg/ml
人脑利钠肽(BNP) (human) [2] = target: 人脑利钠肽(BNP) (human) (UniProt P16860); experiment: indirect ELISA, serial two-fold dilution of the antibody; coated antigen taken as BNP
人脑利钠肽(BNP) (human) [3] = target: 人脑利钠肽(BNP) (human) (UniProt P16860); experiment: sandwich ELISA kit, 5G8 coated at 5 μg/ml, HRP-5D11 detection; 0 pg/ml BNP (blank)
人脑利钠肽(BNP) (human) [4] = target: 人脑利钠肽(BNP) (human) (UniProt P16860); experiment: sandwich ELISA kit, 5G8 coated at 5 μg/ml, HRP-5D11 detection; synthetic BNP standard 7.8125 pg/ml
人脑利钠肽(BNP) (human) [5] = target: 人脑利钠肽(BNP) (human) (UniProt P16860); experiment: sandwich ELISA, 5G8 coated, HRP-5D11 detection; plasma sample with BNP 3287.3 pg/ml
人脑利钠肽(BNP) (human) [6] = target: 人脑利钠肽(BNP) (human) (UniProt P16860); experiment: sandwich ELISA, 5G8 coated, HRP-5D11 detection; 0 pg/ml BNP (blank)
人脑利钠肽(BNP) (human) [7] = target: 人脑利钠肽(BNP) (human) (UniProt P16860); experiment: sandwich ELISA, 5G8 coated, HRP-5D11 detection; plasma sample with BNP 287 pg/ml
人脑利钠肽(BNP) (human) [8] = target: 人脑利钠肽(BNP) (human) (UniProt P16860); experiment: sandwich ELISA kit, 5G8 coated at 5 μg/ml, HRP-5D11 detection; synthetic BNP standard 3.90625 pg/ml
人脑利钠肽(BNP) (human) [9] = target: 人脑利钠肽(BNP) (human) (UniProt P16860); experiment: sandwich ELISA kit, 5G8 coated at 5 μg/ml, HRP-5D11 detection; synthetic BNP standard 125 pg/ml
人脑利钠肽(BNP) (human) [10] = target: 人脑利钠肽(BNP) (human) (UniProt P16860); experiment: sandwich ELISA kit, 5G8 coated at 5 μg/ml, HRP-5D11 detection; synthetic BNP standard 15.625 pg/ml
人脑利钠肽(BNP) (human) [11] = target: 人脑利钠肽(BNP) (human) (UniProt P16860); experiment: sandwich ELISA, 5G8 coated, HRP-5D11 detection; plasma sample with BNP 39.7 pg/ml
人脑利钠肽(BNP) (human) [12] = target: 人脑利钠肽(BNP) (human) (UniProt P16860); experiment: sandwich ELISA, 5G8 coated, HRP-5D11 detection; plasma sample with BNP 2046.3 pg/ml
人脑利钠肽(BNP) (human) [13] = target: 人脑利钠肽(BNP) (human) (UniProt P16860); experiment: indirect ELISA, BNP coated at 2 μg/ml, purified antibody diluted 10^4-fold; mean value
人脑利钠肽(BNP) (human) [14] = target: 人脑利钠肽(BNP) (human) (UniProt P16860); experiment: sandwich ELISA kit, 5G8 coated at 5 μg/ml, HRP-5D11 detection; synthetic BNP standard 250 pg/ml
人脑利钠肽(BNP) (human) [15] = target: 人脑利钠肽(BNP) (human) (UniProt P16860); experiment: sandwich ELISA kit, 5G8 coated at 5 μg/ml, HRP-5D11 detection; synthetic BNP standard 31.25 pg/ml
人脑利钠肽(BNP) (human) [16] = target: 人脑利钠肽(BNP) (human) (UniProt P16860); experiment: sandwich ELISA, 5G8 coated, HRP-5D11 detection; plasma sample with BNP 108 pg/ml
人脑利钠肽(BNP) (human) [17] = target: 人脑利钠肽(BNP) (human) (UniProt P16860); experiment: sandwich ELISA kit, 5G8 coated at 5 μg/ml, HRP-5D11 detection; synthetic BNP standard 62.5 pg/ml
人脑利钠肽(BNP) (human) [18] = target: 人脑利钠肽(BNP) (human) (UniProt P16860); experiment: sandwich ELISA, 5G8 coated, HRP-5D11 detection; plasma sample with BNP 1125.7 pg/ml

Chain of UniProt P16860 (P16860 103-134): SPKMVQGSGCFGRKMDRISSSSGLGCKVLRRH

B1: 兔单克隆抗体OTIR5G8 (antibody, V domains shown)
VH: QSLEESGGRLVTPGTPLTLTCTASGFSLISYDMSWVRQAPGKGLEWIGFLGSGSSAYYASWAKGRFTISRTSTTVDLKITSPTTEDTATYFCARGTGWGQGTLVTVSS
VL: AQVLTQTPSSVSAAVGGTVTINCQASQSVYKNNWLSWFQQKPGQPLKRLTYRASTLDSGVPSRFSGSGSGTEFTLTISDVQCDDAATYYCLGSYDCSSADFGGGTEMVVK
**Q.** Which results are given for B1?
**A.** OD450nm (人脑利钠肽(BNP) (human) [1]): 1.74 OD450nm; 效价 (ELISA titer) (人脑利钠肽(BNP) (human) [2]): 6.6e+06; OD450nm (人脑利钠肽(BNP) (human) [3]): 0.01 OD450nm; OD450nm (人脑利钠肽(BNP) (human) [4]): 0.033 OD450nm; OD450nm (人脑利钠肽(BNP) (human) [5]): 3.6 OD450nm; OD450nm (人脑利钠肽(BNP) (human) [6]): 0.026 OD450nm; OD450nm (人脑利钠肽(BNP) (human) [7]): 1.37 OD450nm; OD450nm (人脑利钠肽(BNP) (human) [8]): 0.024 OD450nm; OD450nm (人脑利钠肽(BNP) (human) [9]): 1.11 OD450nm; OD450nm (人脑利钠肽(BNP) (human) [10]): 0.086 OD450nm; OD450nm (人脑利钠肽(BNP) (human) [11]): 0.273 OD450nm; OD450nm (人脑利钠肽(BNP) (human) [12]): 3.48 OD450nm; OD450 (人脑利钠肽(BNP) (human) [13]): 2.85 OD450; OD450nm (人脑利钠肽(BNP) (human) [14]): 2 OD450nm; OD450nm (人脑利钠肽(BNP) (human) [15]): 0.224 OD450nm; OD450nm (人脑利钠肽(BNP) (human) [16]): 0.951 OD450nm; OD450nm (人脑利钠肽(BNP) (human) [17]): 0.529 OD450nm; OD450nm (人脑利钠肽(BNP) (human) [18]): 2.8 OD450nm

B2: 兔单克隆抗体OTIR5D11 (antibody, V domains shown)
VH: QSVEESGGRLVTPGTPLTLTCTVSGFSLSSYAMNWVRQAPGKGLEWIGYIDSSGTIYYASWAKGRFTISKTSTTVDLKITSPTTEDTATYFCARGMNWGQGTLVTVS
VL: AAVLTQTPSPVSAAVGGTVTISCQSSQSVYDNNALAWYQQKPGQPPKRLIYKASTLDSGVPSRFSGSGSGTQFTLTISGVQCDDAATYYCLGEYYDDAEFGGGTEVVVK
**Q.** With B2 as the binder, how does the 效价 (ELISA titer) (人脑利钠肽(BNP) (human) [2]) read?
**A.** The 效价 (ELISA titer) was 1.3e+07.

**Q.** And the OD450 (人脑利钠肽(BNP) (human) [13])?
**A.** The OD450 was 2.85 OD450.
